Assay results from IntAct's records for PubMed 15883825.

B1: F-box protein MET30 (Saccharomyces cerevisiae), P39014 (parent)
chain: MRRERQRMMSFEDKDKDDLDNSNSNNSSEMTDTAMMPPLKRLLITGSSDDLAQGSSGKKKMTMATRSPSSSPDLATNDSGTRVQPLPEYNFTKFCYRHNPDIQFSPTHTACYKQDLKRTQEINANIAKLPLQEQSDIHHIISKYSNSNDKIRKLILDGILSTSCFPQLSYISSLVTHMIKIDFISILPQELSLKILSYLDCQSLCNATRVCRKWQKLADDDRVWYHMCEQHIDRKCPNCGWGLPLLHMKRARIQQNSTGSSSNADIQTQTTRPWKVIYRERFKVESNWRKGHCRIQEFKGHMDGVLTLQFNYRLLFTGSYDSTIGIWDLFTGKLIRRLSGHSDGVKTLYFDDRKLITGSLDKTIRVWNYITGECISTYRGHSDSVLSVDSYQKVIVSGSADKTVKVWHVESRTCYTLRGHTEWVNCVKLHPKSFSCFSCSDDTTIRMWDIRTNSCLKVFRGHVGQVQKIIPLTIKDVENLATDNTSDGSSPQDDPTMTDGADESDTPSNEQETVLDENIPYPTHLLSCGLDNTIKLWDVKTGKCIRTQFGHVEGVWDIAADNFRIISGSHDGSIKVWDLQSGKCMHTFNGRRLQRETQHTQTQSLGDKVAPIACVCIGDSECFSGDEFGCVKMYKFDLND
partner: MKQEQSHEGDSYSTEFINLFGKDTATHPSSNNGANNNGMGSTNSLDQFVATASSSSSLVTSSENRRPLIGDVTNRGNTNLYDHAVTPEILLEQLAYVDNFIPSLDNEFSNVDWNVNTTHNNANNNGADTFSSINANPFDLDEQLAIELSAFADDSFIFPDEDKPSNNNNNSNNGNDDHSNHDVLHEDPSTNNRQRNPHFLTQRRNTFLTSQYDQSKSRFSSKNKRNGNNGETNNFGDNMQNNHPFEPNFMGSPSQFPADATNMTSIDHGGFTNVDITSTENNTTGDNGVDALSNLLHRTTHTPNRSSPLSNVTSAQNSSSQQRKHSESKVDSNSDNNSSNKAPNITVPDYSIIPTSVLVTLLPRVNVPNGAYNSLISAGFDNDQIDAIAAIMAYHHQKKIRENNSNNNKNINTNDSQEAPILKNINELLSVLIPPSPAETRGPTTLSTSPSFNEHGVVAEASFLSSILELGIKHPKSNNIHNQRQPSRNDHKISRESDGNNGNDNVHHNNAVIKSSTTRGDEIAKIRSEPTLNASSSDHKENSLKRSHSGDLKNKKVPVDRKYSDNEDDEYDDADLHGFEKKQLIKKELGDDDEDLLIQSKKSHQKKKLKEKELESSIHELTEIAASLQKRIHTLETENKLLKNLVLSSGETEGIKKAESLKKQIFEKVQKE

Variants of: B1
Conditions: with met4_yeast MET4, P32389

Variant	effect of a mutation on the interaction
L386D;N425A;Q467A;L530D	decreasing interaction
